Data from paper PMC2413427, “Free Brick1 Is a Trimeric Precursor in the Assembly of a Functional Wave Complex” (PLoS ONE, 2008).

How the values were obtained:
[1] = molecular target: human Brk1, in vitro translated, N-terminally tagged (PC-Brk1; the other copies in the self-association experiments are SBP-, Flag- or HA-Brk1) (human) (UniProt Q8WUW1); test: co-IP; PC-Brk1, SBP-Brk1 and HA-Wave2 co-translated in vitro; PC immunoprecipitation, then SBP precipitation or HA immunoprecipitation as a second step
[2] = molecular target: the molecule itself; test: cross-linking; pooled SEC fractions of partially purified free untagged Brk1; glutaraldehyde 0.2% final or 2-fold dilutions, 50 mM Tris pH 8.0, 10 min, room temperature; Brk1 western blot
[3] = molecular target: the molecule itself; test: co-IP; PC-, SBP-, Flag- and HA-Brk1 co-produced by in vitro translation with 35S-methionine; three sequential native precipitations (PC eluted with EDTA, SBP on streptavidin eluted with biotin, then Flag or HA); autoradiography

HA-Wave2, in vitro translated (from UniProt Q9Y6W5 1-498) (natural protein)
stoichiometry N [1]: 1

B1: untagged Brk1 (free Brk1), partially purified from transfected 293T cells (natural protein, human, UniProt Q8WUW1 1-75, looked up)
chain: MAGQEDPVQREIHQDWANREYIEIITSSIKKIADFLNSFDMSCRSRLATLNEKLTALERRIEYIEARVTKGETLT
notes: Brick1 (Brk1, Hspc300), human, untagged cDNA; printed mass 8.7 kDa; that is not this construct; The fraction holds many other proteins but no Wave complex; also called Brick1; Hspc300; source: 293T, transfected with pCS2-Brk1, partially purified (35%-55% ammonium sulfate cut, SEC on superdex-200)
stoichiometry N [2]: 3

B2: human Brk1, in vitro translated, N-terminally tagged (PC-Brk1; the other copies in the self-association experiments are SBP-, Flag- or HA-Brk1) (natural protein, UniProt Q8WUW1 1-75, looked up)
chain: B1 chain
notes: Brick1 (Brk1, Hspc300), human; One molecule stands for the differently tagged copies of human Brk1 that were co-translated; also called SBP-Brk1; Flag-Brk1; source: in vitro translated (TnT, rabbit reticulocyte lysate, 35S-methionine), pCS2 plasmid; not shown: PC, N-terminal, kept
stoichiometry N [3]: 3
